Experimental data as given in PMC9767379, “Homologous chromosomes are stably conjoined for Drosophila male meiosis I by SUM, a multimerized protein assembly with modules for DNA-binding and for separase-mediated dissociation co-opted from cohesin” (PLOS Genetics, 2022).
Values joined by “and” are separate entries in the source; they are usually repeats but may differ in a detail not shown here. Equal values may be shown once.

T1: Strep-II-UNO_C (D. melanogaster, UniProt Q7JQU5 281-417)
T1 construct: source: Hi5 insect cells, baculovirus, co-expressed with MBP-SNM; purified (Strep-Tactin, SEC); not shown: twin Strep-II, N-terminal, kept
T1 sequence (looked up): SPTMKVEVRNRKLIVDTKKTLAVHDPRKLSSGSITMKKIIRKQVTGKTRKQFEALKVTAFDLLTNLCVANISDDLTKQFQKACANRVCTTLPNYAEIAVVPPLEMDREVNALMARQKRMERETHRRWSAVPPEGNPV


How the values were obtained:
[1] = molecular target: the molecule itself; test: SEC-MALS; purified protein alone, 50 μL at 5–10 μM, 50 mM HEPES pH 7.5, 1 mM TCEP, 300 mM NaCl
Strep-II-UNO_C = molecular target: T1, Strep-II-UNO_C; test: SEC-MALS + other: mass photometry; purified SU_C complex; SEC-MALS in 50 mM HEPES pH 7.5, 1 mM TCEP, 300 mM NaCl, 5–10 μM; mass photometry in 30 mM HEPES pH 7.8, 150 mM NaCl, 3 μM diluted 1:100; conditions: both partners purified

Row | stoichiometry N (Strep-II-UNO_C) | Binder | stoichiometry N [1]
1 | – | MBP-UNO_N (domain or fragment, D. melanogaster, UniProt Q7JQU5 1-73, looked up, UNO, D. melanogaster, N-terminal domain aa 1-73; found as a tetramer (SEC peak 1) and as a dimer (SEC peak 2); source: E. coli BL21, purified (amylose/MBP Trap, ion exchange, SEC); not shown: His6, N-terminal, kept; MBP, N-terminal, kept) MPALTHQILTMQRAPPLNLSFKIQLLSGQNVILVECSGYESELFLPQIVGERITMQNVIQDRRCCAESMLLRD | 4 and 2
2 | 1 | MBP-SNM (natural protein, D. melanogaster, UniProt Q9W0F4 1-973, looked up, SNM (stromalin in meiosis; SA-2), D. melanogaster; source: purified (Strep-Tactin, SEC); not shown: MBP, N-terminal, kept) MSDISFDDAVLNDSQASNQMDFEIREECSIAPNDEPVCVDGTVGDATNKSLLQMILSRKRLSPTNKRNSHIESVAKYWGEFYLDSPTAALVALLQFVVEVSGSHYQIPDDTSMPFSYSDILSNSSSHFSNTHIYPLIRKPADVFVNQVGSFLNALLLVANKFRSDSYQLFLVQLTNFVMACSESNIRTFRHTATMIGLKIMTILSDLKSLDDEIAMTVWMQMFNSMFVARSRDIVTDIRLLCISELGQWFARYPHCHLQPTSLRIFYEALNDGSGDVIQCSLDNISVLCRKDVLFSEIVALTSEFREILVELCLGKEDAIAEKSVQFLTHFHVLSAEILTDDVCRVLEQLIMAANRGLAQAAADLFILRRNGLDGETFCQRVKHLLQLFIECGHEQADYLVDSLIDNCELVLDWKSMIAVLLENPKSRELSDIHCSSLIAILLAGVKQATAGEIPPGRYTKDLKREPRQGAQERATKCLAPVLPELLRTYANRLQDIERLLELPKYFCFDYYHEQNRMGQLNELVEHFELIIFDQTSSTTVLQITVKTLEFLNRMIPIPLTKQLLNSAVTNYKMAWHRTQDTSPSRSTHNESNRLLATLRLLTVLSGHFNLSKWDLTEPLLFSLKMLLRQRRLPNGDDLPPEAFSLYLKACFCCLCWDMENLEGTALNNVDMDEYCDVLHHNLEDYLYVTFSLVGKSNTEPLAYPCFSYTCDLFVLHGNLCGSSNPSIRSVAHVPSGNELDILEGFLMEHFLELSPSDLMLETNSDQLQRIRSILTSYLKVVCLGVVPTMRASKFYEYYVKYHAPFGDVMRCSMELALQRNPIHFAMTMLHTCLLLYAKVFPDDTRHAAGQRALRPAEFSELMELANRLAKILISNPMEHRECVIALHRSGILFVFELAQKQPTEATKKLPFLRVLKVFVPLLLVQDKTRILNFFEPYEQLIIPTCNRNDIAHLKEYRNALRPRKTKSYPQAT | –
3 | – | Mod(mdg4)_CP (purified) (domain or fragment) MADDEQFSLCWNNFNTNLSAGFHESLCRGDLVDVSLAAEGQIVKAHRLVLSVCSPFFRKMFTQMPSNTHAIVFLNNVSHSALKDLIQFMYCGEVNVKQDALPAFISTAESLQIKGLTDND | 6
